Data taken from PMC7232412.

Columns and labels:
HIV-1 Gag p6 (pGBT p6) = HIV-1 Gag p6 (pGBT p6) (UniProt P04591); experiment: yeast 2-hybrid assay; conditions: parent: est. 1.0; read off a plot
[1] = target: HIV-1 Gag p6 with ubiquitin fused to its C-terminus (pGBT p6-Ub), P04591;P0CG48; experiment: yeast 2-hybrid assay; conditions: parent: est. 1.0; read off a plot

In the case of “human Tsg101 wild-type (pGAD-hTsg101) (from UniProt Q99816) Y43A”, the ratio to parent (HIV-1 Gag p6 (pGBT p6)) is reported as 1.4 and the ratio to parent [1] is reported as 1.5.
